Our source for the Kd values is article PMC4169579 (2014).

Positions of bridges follow the written chain, without caps; N, C: chain ends. No end group written: not given here.

The assay addresses Prostate-specific antigen (PSA or kallikrein-related peptidase-3, KLK3), major form of active PSA (isoform … (human, UniProt P07288 25-261)). Briefly: SPR. Background: SPR reads the build-up and loss of mass on a sensor chip optically.

Sequence of Prostate-specific antigen (PSA or kallikrein-related peptidase-3, KLK3), major form of active PSA (isoform … (P07288 25-261): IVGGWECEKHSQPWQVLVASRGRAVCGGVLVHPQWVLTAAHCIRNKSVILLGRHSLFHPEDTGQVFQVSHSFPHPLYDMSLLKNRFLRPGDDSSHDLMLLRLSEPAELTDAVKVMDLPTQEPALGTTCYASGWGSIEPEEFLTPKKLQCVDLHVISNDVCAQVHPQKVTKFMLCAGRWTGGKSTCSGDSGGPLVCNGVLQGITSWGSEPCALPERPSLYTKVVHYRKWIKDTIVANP

B1: 12-amino acid cyclic peptide B2 (without C-terminal amidation) (peptide)
peptide: CVFAHNYDYLVC-OH
modifications: disulfide 1-12; N-terminus assumed
SMILES: CC(C)C[C@@H]1NC(=O)[C@H](Cc2ccc(O)cc2)NC(=O)[C@H](CC(=O)O)NC(=O)[C@H](Cc2ccc(O)cc2)NC(=O)[C@H](CC(N)=O)NC(=O)[C@H](Cc2c[nH]cn2)NC(=O)[C@H](C)NC(=O)[C@H](Cc2ccccc2)NC(=O)[C@H](C(C)C)NC(=O)[C@@H](N)CSSC[C@@H](C(=O)O)NC(=O)[C@H](C(C)C)NC1=O
The Kd is the constant that tells how readily two partners part at equilibrium. Molecule B1 registered a Kd of 56.1 µM.
